Measurements as given in US7166472B2, “Method for the identification of agents that inhibit or promote cataracts and uses thereof” (The General Hospital Corporation, priority 2000, dated 2007).

Legend:
[1] = Metal reduction capacity of tanned calf lens α-crystallin, Fe(III); format: biochemical; settings: α-crystallin preparation 100 μg/ml, Fe(III)-citrate 25 μM, one hour 37° C.
Protocol: (§1) Studies of Tanned Calf Lens Crystalin in Assay of Crystallin Protein for Metal Reduction Capacity—α-Crystallin (10 mg/ml) from calf lens was modified by reaction with 3-HK (100 μM), 3-HAA (100 μM), or ASC (100 μM) in PBS, ph 7.4, for 12 hours at 4° C. in the dark. Control samples were incubated with ascorbic acid (100 μM) or without added reductant. The tanning incubation solutions also contained triethylenetetramine (TETA, 200 μM) to prevent cross-linking of the protein. After incubation, free reductant was removed from the tanned α-crystallin preparations by exhaustive dialysis at 4EC in the dark utilizing PBS, pH 7.4, containing CHELEX™ 100 chelating ion exchange resin (BioRad, Hercules, Calif.). The various modified α-crystallin preparations (100 μg/ml) were co-incubated with either Cu(II)-glycine glycine (25 μM) or Fe(III)-citrate (25 μM) for one hour at 37° C. and assayed for metal reduction capacity using the BC and BP spectrophotometric assay as detailed above. Incubated and dialyzed α-crystallin (100 μg/ml) and untreated α-crystallin (100 μg/ml) preparations were used for procedural control.
(§2) 3-HK: α-crystallin reduced nearly 100% of the available Cu(II) and approximately 20% of the available Fe(III). 3-HAA: α-crystallin reduced approximately 65% of the available Cu(II).

[2] = Metal reduction capacity of tanned calf lens α-crystallin, Cu(II); format: biochemical; settings: α-crystallin preparation 100 μg/ml, Cu(II)-glycine 25 μM, one hour 37° C.
Protocol: as §1, §2

Molecule	reduction of available Fe(III) [1]	reduction of available Cu(II) [2]
α-Crystallin: unmodified α-crystallin from calf lens, procedural control (protein, UniProt P02470 1-173; P02510 1-175, looked up) Alpha-crystallin A chain: MDIAIQHPWFKRTLGPFYPSRLFDQFFGEGLFEYDLLPFLSSTISPYYRQSLFRTVLDSGISEVRSDRDKFVIFLDVKHFSPEDLTVKVQEDFVEIHGKHNERQDDHGYISREFHRRYRLPSNVDQSALSCSLSADGMLTFSGPKIPSGVDAGHSERAIPVSREEKPSSAPSS Alpha-crystallin B chain: MDIAIHHPWIRRPFFPFHSPSRLFDQFFGEHLLESDLFPASTSLSPFYLRPPSFLRAPSWIDTGLSEMRLEKDRFSVNLDVKHFSPEELKVKVLGDVIEVHGKHEERQDEHGFISREFHRKYRIPADVDPLAITSSLSSDGVLTVNGPRKQASGPERTIPITREEKPAVTAAPKK	negligible percentage	approximately 35%
3-HK: α-crystallin: calf lens α-crystallin modified (tanned) by reaction with 3-HK, free metabolite removed by dialysis (protein, UniProt P02470 1-173; P02510 1-175, looked up, modified with 3-hydroxykynurenine, calf lens α-crystallin modified (tanned) by reaction with 3-HK, free metabolite removed by dialysis) Alpha-crystallin A chain: MDIAIQHPWFKRTLGPFYPSRLFDQFFGEGLFEYDLLPFLSSTISPYYRQSLFRTVLDSGISEVRSDRDKFVIFLDVKHFSPEDLTVKVQEDFVEIHGKHNERQDDHGYISREFHRRYRLPSNVDQSALSCSLSADGMLTFSGPKIPSGVDAGHSERAIPVSREEKPSSAPSS Alpha-crystallin B chain: MDIAIHHPWIRRPFFPFHSPSRLFDQFFGEHLLESDLFPASTSLSPFYLRPPSFLRAPSWIDTGLSEMRLEKDRFSVNLDVKHFSPEELKVKVLGDVIEVHGKHEERQDEHGFISREFHRKYRIPADVDPLAITSSLSSDGVLTVNGPRKQASGPERTIPITREEKPAVTAAPKK	approximately 20%	~100%
